Measurements: publication PMC3322389 (Structure(London, England:1993), 2012)

Biological target: the molecule itself
Test: AUC

B1: Aureochrome1 LOV domain (AuLOV), residues 176-337 of V. frigida Aureochrome1 (domain or fragment, UniProt A8QW55 176-337, looked up)
chain: DSLIAQCSPEADTLLTDNPSKANRILEDPDYSLVKALQMAQQNFVITDASLPDNPIVYASRGFLTLTGYSLDQILGRNCRFLQGPETDPRAVDKIRNAITKGVDTSVCLLNYRQDGTTFWNLFFVAGLRDSKGNIVNYVGVQSKVSEDYAKLLVNEQNIEYK
  stoichiometry N: 2
